Source: PMC11077774 (2024)

B1: BicD2-CTD (C-terminal cargo-binding domain of human Bicaudal D2, residues 715-804) [human] / full-length GTP-bound Rab6a/Q72L with N-terminal GST tag [human] (parent complex)
chain 1: YENEKAMVTETMMKLRNELKALKEDAATFSSLRAMFATRCDEYITQLDEMQRQLAAAEDEKKTLNSLLRMAIQQKLALTQRLELLELDHE
chain 2: MSTGGDFGNPLRKFKLVFLGEQSVGKTSLITRFMYDSFDNTYQATIGIDFLSKTMYLEDRTVRLQLWDTAGLERFRSLIPSYIRDSTVAVVVYDITNVNSFQQTTKWIDDVRTERGSDVIIMLVGNKTDLADKRQVSIEEGERKAKELNVMFIETSAKAGYNVKQLFRRVAAALPGMESTQDRSREDMIDIKLEKPQEQPVSEGGCSC

Variants of: B1
Test: GST pull-down, SDS-PAGE band quantification; parent: 1; read off a plot

Compared with chain 2 L51A, chain 2 R63A is lower in ratio to parent: ~1.1 for the first, ~0.07 for the second.

First: chain 2 F75A
Second: chain 2 P80A
The ratio to parent of the first is lower: ~0.02 for the first, ~0.75 for the second.

Compared with chain 2 I83A, chain 2 I48A is higher in ratio to parent: ~0.02 for the first, ~1.3 for the second.

Compared with chain 2 I46A, chain 2 Q43A is higher in ratio to parent: ~0.07 for the first, ~1 for the second.

Going from chain 2 D85A to chain 2 R84A, the ratio to parent rises from ~0.99 to ~1.

First: chain 2 L78A
Second: chain 2 Y82A
The ratio to parent of the first is higher: ~0.57 for the first, ~0.16 for the second.

Going from chain 2 Q65A to chain 2 S52A, the ratio to parent rises from ~0.48 to ~1.

Going from chain 2 I79A to chain 2 Y35A, the ratio to parent rises from ~0.1 to ~0.4.

First: chain 2 Y42A
Second: chain 2 R74A
The ratio to parent of the first is lower: ~0.38 for the first, ~0.95 for the second.

First: chain 2 D49A
Second: chain 2 K53A
The ratio to parent of the first is higher: ~0.04 for the first, ~0.01 for the second.

First: chain 2 F50A
Second: chain 2 S81A
The ratio to parent of the first is lower: ~0.37 for the first, ~1 for the second.

Going from chain 2 T54A to chain 2 S77A, the ratio to parent rises from ~0.79 to ~0.86.
